# “Also recorded” adds a separate entry of the source.
# Key:
# [1] = tested on: carcinoid syndrome, advanced disease; details: patients with advanced disease; cited from earlier work
# [2] = cited from earlier work
# [3] = tested on: progressive neuroendocrine tumors; assay: Non-randomized trial: clinical, metabolic and imaging response (RECIST) after two cycles; format: in vivo; details: 18 patients, two cycles of 500 mCi
# Description: Among these patients, seventeen (53%) had grade I or II hematological toxicities, while one patient had grade III thrombocytopenia with nadir mean of 5 weeks (ranging from 4 to 6 weeks) after therapy (FIG. 2). These toxicities were transient, lasting from 1 to 6 weeks (averaging 3 weeks). […] One patient had grad II liver toxicity which appeared 4 weeks after the therapy and resolved in week 5. […] Among the 18 patients (13 men and 5 women, from 41 to 83 years old (average age 59)), who were treated with two cycles of high dose (500 mCi) ^111In-pentetreotide, therapeutic efficacy of this treatment regimen is evident (FIG. 3). These patient had progressive neuroendocrine tumors and failed first-line therapy. According to the pre-therapy diagnostic ^111In-pentetreotide scan, these patients had grade 3 to grade 5 tumors. In this trial, each dose of ^111In-pentetreotide was infused over a period of 3 to 6 hours. The two treatments were spaced a few weeks (e.g., […]) apart. The patients were monitored for clinical, metabolic, and imaging responses based on using Response Evaluation Criteria in Solid Tumors (RECIST) criteria (Therasse P, Arbuck S G, Eisenhauer E A, et al. New guidelines to evaluate the response to treatment in solid tumors. European Organization for Research and Treatment of Cancer, National Cancer Institute of the United States, National Cancer Institute of Canada. Journal of the National Cancer Institute 2000; 92(3):205-16.).
# (§1) Patients were injected with ^111In-pentetreotide at an average dose of 489.2 mCi (ranging from 473.5 to 511.6 mCi) as an intravenous infusion in physiological saline using a specially designed IV pole to decrease radiation exposure to the personnel. The infusion took about 3 to 5 hours, in an outpatient setting. The amount of octreotide administered was 30 mg. Patients were evaluated for hematological, renal and hepatic toxicities using NCI common toxicities criteria on week 4, 5, 6, and 7 after treatment, and every three months thereafter. Patients were followed for an average of 8.69 months with a range of 1.7-17.2 months. 18 patients received a second treatment 10-12 weeks after the first therapy with an average cumulative dose of 982.8 mCi (ranging from 955.1 to 1006.1 mCi). These patients were evaluated for a clinical and metabolic responses beginning 4 weeks after their second therapy.
# The efficacy of ^111In-pentetreotide therapy was evaluated in 18 patients who received two cycles of therapy. The primary endpoint was clinical, metabolic and imaging response using RECIS criteria. […] Tumor image before and after treatment showing no progression (FIG. 6).
# [4] = tested on: patients with progressive neuroendocrine tumors; assay: Non-randomized trial: hematological, renal and hepatic toxicities by NCI common toxicities criteria; format: in vivo
# Description: In a non-randomized trial, 32 patients (21 men and 11 women, from 16-83 years old (average 56 years old)) were tested. Among these patients, there were 25 Caucasions (78%), 2 Blacks (6%), 4 Hispanics (12.5%) and 1 other (3%). All patients had progressive neuroendocrine tumors (21 Carcinoma, 7 Islet Cell Carcinoma of the Pancreas, 1 Pituitary Adenoma, 1 Glucagonoma, and 1 Pheochromocytoma) and all had failed first line therapy (23 chemotherapy, 12 radiotherapy, and 28 surgery).
# Fourteen patients received one therapy (ranging from 473.5 to 511.6 mCi, with an average of 489.2 mCi) and 18 patients received two treatments with the cumulative doses ranging from 955.1 to 1,006.1 mCi (average=982.8 mCi/patient). Patients were evaluated for evidence of hematological, renal and hepatic toxicities using NCI common toxicities criteria and followed for an average of 9 months (ranging from 1.7 to 17.2 months).
# as §1
# [5] = tested on: NETs; details: 180 mCi every 3 weeks for 10 occasions; cited from earlier work
# [6] = tested on: disseminated NETs; details: 16 patients, repeated doses 81-134 mCi, cited from earlier work
# [7] = tested on: carcinoid tumors; details: cited from earlier work
# [8] = 18 patients, double-dose treatments
# [9] = 32 patients, one or two cycles of about 500 mCi
molecule,measurement,setting,value
C[C@@H](O)[C@@H]1NC(=O)[C@H](CCCCN)NC(=O)[C@@H](Cc2c[nH]c3ccccc23)NC(=O)[C@H](Cc2ccccc2)NC(=O)[C@@H](NC(=O)[C@H](N)Cc2ccccc2)CSSC[C@@H](C(=O)N[C@H](CO)[C@@H](C)O)NC1=O [octreotide],"tumor stabilization, patients",[1],50-55%
same,in vivo half-life,[2],1.5 to 2 h
[^111In-DTPA-D-Phe1]-octreotide [^111In-pentetreotide],"clinical response (functional living index questionnaire and physical examination), patients",[3],84%
same,"metabolic response (25% or more decline in chromogranin or other markers), patients",[3],72%
same,patients achieving stable disease by imaging criteria,[3],88%
same,patients achieving stable disease by imaging criteria (count),[3],sixteen out of the 18
same,nose bleeds,[4]; 4 weeks after treatment,One patient
same,patients with grade I or grade II hematological toxicities,"[4]; 18 patients, double-dose (two cycles of 500 mCi)",55%
same,duration of hematological toxicities,[4]; [8],1-6 weeks
same,grade III thrombocytopenia,[4]; [8],one patient
same,nadir mean after therapy,[4]; [8],5 weeks
same,need for supportive therapy,[4]; [8],None of the patients required supportive therapy
same,renal toxicity,"[4]; 18 patients, double-dose treatments, follow-up 3.93 to 17.23 months",No renal toxicity was observed
same,grade II liver toxicities,"[4]; 18 patients, double-dose treatments, appeared 4 weeks after therapy, resolved on week 5",One patient
same,renal toxicity,"[4]; 32 patients, follow-up 1.7 to 17.2 months",no evidence of renal toxicity; also recorded: No significant short or long term renal toxicity
same,need for supportive therapy,"[4]; 32 patients, one or two cycles",None of the patients required supportive therapy
same,duration of hematological toxicities (average),[4]; [9],3 weeks
same,grade III thrombocytopenia,[4]; [9],one patient
same,nadir mean of hematological toxicity after therapy,[4]; [9],5 weeks
same,patients with grade I or II hematological toxicities,"[4]; 32 patients, one or two cycles of about 500 mCi, intravenous infusion",53%
same,grade II liver toxicity,"[4]; 32 patients, appeared 4 weeks after therapy, resolved in week 5",One patient
same,deaths during the course of the study,"[4]; 32 patients, deaths attributed to tumor burden",Two patients died
same,maximum tolerated dose,"[4]; average cumulative dose 982.8 mCi, average follow up 8.69 months",maximum tolerated dose has not been reached
same,overall treatment associated toxicity,[4]; following one or two cycles,no evidence of significant treatment associated toxicity
same,safety of repeated doses,[5],demonstrated the safety
same,patients with sustained benefit,[6]; 18 months after the treatments,31%
same,patients with some short term benefits,[6],up to 70%
Interferon [Interferon (IFN)],biochemical response rate,[7]; carcinoid tumors,40%
same,tumor response rate,[7]; carcinoid tumors,12%
same,toxicity,"[7]; fever, anorexia, weight loss, fatigue and myelosuppression",significant toxicity

# Reference: patent US20080247947A1, “High dose 111In-pentetreotide therapy of neuroendocrine tumors” (priority 2007, published 2008)
